Results taken from paper PMC4990422, “Coupling between the DEAD-box RNA helicases Ded1p and eIF4A” (eLife, 2016).

Key:
[1] = target: HA-tagged Ded1p (His6-Ded1p-HA3) (S. cerevisiae), P06634; experiment: pull-down; Ded1p-HA held on anti-HA antibody and Protein G Dynabeads; 300 nM S•Tag-eIF4G or 1500 nM eIF4A added alone; 20 µg/mL RNases A,B; 8°C overnight; washed with HRB-Na100 buffer; Western blot; details: remark: other sources report otherwise
[2] = target: HA-tagged Ded1p (His6-Ded1p-HA3) (S. cerevisiae), P06634; experiment: pull-down; Ded1p-HA held on anti-HA antibody and Protein G Dynabeads; 300 nM S•Tag-eIF4G and 1500 nM eIF4A added together; 20 µg/mL RNases A,B; 8°C overnight; washed with HRB-Na100 buffer; Western blot; details: remark: other sources report otherwise
eIF4G [3] = target: T1, eIF4G (S. cerevisiae, UniProt P39935 1-952; P07260 1-213); experiment: global fit of RNA unwinding time courses to a thermodynamic model; K1/2 of a binding step calculated with the model of Figure 4A; RNA bound to the target before the step, ATP bound to eIF4A; details: both partners purified
T1 construct: eIF4G1, scaffolding protein of translation initiation, S. cerevisiae; present in the preparations of eIF4G; the model treats G as one unit; also called eIF4G1; S•Tag-eIF4G; source: recombinant, expression and purification previously described (Hilliker et al., 2011)
T1 sequence (looked up) 1: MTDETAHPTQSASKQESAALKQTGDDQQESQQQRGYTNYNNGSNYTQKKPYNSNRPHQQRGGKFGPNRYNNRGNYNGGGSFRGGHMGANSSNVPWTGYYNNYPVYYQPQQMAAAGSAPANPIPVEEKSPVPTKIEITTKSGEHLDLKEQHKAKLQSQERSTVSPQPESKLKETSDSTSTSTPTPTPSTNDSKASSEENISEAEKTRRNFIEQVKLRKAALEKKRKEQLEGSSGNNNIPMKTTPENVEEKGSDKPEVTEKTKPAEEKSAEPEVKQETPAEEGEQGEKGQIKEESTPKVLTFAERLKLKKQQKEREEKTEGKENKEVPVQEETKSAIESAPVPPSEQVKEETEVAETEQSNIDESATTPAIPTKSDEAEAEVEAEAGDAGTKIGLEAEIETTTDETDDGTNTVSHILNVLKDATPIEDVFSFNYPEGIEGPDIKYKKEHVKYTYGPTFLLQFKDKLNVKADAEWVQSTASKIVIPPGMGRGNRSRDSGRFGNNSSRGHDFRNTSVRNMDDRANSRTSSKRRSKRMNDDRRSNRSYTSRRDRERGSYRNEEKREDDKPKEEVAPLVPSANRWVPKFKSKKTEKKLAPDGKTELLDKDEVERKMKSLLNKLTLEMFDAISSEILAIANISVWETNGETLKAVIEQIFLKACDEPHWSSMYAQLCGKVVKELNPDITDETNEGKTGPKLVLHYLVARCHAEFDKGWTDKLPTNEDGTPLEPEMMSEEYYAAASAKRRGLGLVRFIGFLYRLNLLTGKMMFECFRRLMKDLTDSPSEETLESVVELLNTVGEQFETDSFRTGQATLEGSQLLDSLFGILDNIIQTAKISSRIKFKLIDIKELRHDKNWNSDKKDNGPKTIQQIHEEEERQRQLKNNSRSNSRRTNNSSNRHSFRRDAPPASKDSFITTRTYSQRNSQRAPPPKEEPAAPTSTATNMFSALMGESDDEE
T1 sequence (looked up) 2: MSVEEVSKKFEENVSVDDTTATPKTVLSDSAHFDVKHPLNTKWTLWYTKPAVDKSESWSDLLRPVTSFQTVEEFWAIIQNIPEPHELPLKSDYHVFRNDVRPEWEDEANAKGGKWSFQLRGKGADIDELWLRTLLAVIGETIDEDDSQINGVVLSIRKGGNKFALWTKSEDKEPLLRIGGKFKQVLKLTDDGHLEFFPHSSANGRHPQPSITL

Ded1p-eIF4G complex [4] = target: T2, Ded1p-eIF4G complex (S. cerevisiae, UniProt P06634 1-604; P39935 1-952; P07260 1-213); experiment: as above; details: both partners purified
T2 construct: Ded1p, S. cerevisiae, wild type, as Wm1; eIF4G1, S. cerevisiae, as in Wm3; eIF4E, S. cerevisiae, as in Wm3; present in the preparations of eIF4G; State of the thermodynamic model; also called DG; DTG; source: formed from the purified recombinant proteins; copies: + +
T2 sequence (P06634 whole entry, one chain of several): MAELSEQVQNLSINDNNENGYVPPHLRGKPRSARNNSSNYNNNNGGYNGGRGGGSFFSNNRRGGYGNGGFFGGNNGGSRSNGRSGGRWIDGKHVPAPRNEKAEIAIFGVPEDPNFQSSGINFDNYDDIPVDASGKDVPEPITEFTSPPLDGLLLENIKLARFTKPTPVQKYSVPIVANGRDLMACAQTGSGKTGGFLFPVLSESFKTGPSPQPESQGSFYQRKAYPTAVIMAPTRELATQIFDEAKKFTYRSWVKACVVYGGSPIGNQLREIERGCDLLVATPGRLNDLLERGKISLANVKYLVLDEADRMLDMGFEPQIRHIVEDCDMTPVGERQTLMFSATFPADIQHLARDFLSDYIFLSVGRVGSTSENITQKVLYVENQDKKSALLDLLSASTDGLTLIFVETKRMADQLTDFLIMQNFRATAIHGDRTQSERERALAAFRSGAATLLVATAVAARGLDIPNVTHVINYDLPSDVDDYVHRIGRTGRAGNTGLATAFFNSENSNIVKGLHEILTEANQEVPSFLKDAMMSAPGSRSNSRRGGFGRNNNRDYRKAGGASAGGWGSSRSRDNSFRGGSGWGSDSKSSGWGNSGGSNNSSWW

eIF4G [5] = target: T1, eIF4G; experiment: global fit of RNA unwinding time courses to a thermodynamic model; K1/2 of a binding step calculated with the model of Figure 4A; RNA bound to the binder before the step, ATP bound to eIF4A; details: both partners purified
eIF4G [6] = target: T1, eIF4G; experiment: global fit of RNA unwinding time courses to a thermodynamic model; K1/2 of a binding step calculated with the model of Figure 4A; RNA bound to the binder before the step, no ATP; details: both partners purified
Ded1p-eIF4G complex [7] = target: T2, Ded1p-eIF4G complex; experiment: as above; details: both partners purified
[8] = target: Ded1p (wild type, N-terminal His6-tag) (S. cerevisiae), P06634; experiment: cross-linking; formaldehyde 1% (v/v), 30 min, room temperature; Ded1p 0.3 µM, eIF4A 2 µM or as indicated, RNA 2 µM (16 bp, 25 nt 3'-overhang), 0.5 mM ADPNP-MgCl2, unwinding buffer; Western blot with α-Ded1p; details: remark: other sources report otherwise
Ded1p (wild type, N-terminal His6-tag) (S. cerevisiae), P06634, sequence (P06634 whole entry): as the sequence (P06634 whole entry, one chain of several) above

eIF4G [9] = target: T1, eIF4G; experiment: global fit of RNA unwinding time courses to a thermodynamic model; K1/2 of a binding step calculated with the model of Figure 4A (Kintek Global Explorer; 16 bp duplex, 25 nt 3' overhang); step without RNA and without ATP; details: both partners purified
Ded1p-eIF4G complex [10] = target: T2, Ded1p-eIF4G complex; experiment: as above; details: both partners purified

HA-tagged Ded1p (His6-Ded1p-HA3) (S. cerevisiae), P06634, sequence (P06634 whole entry): as the sequence (P06634 whole entry, one chain of several) above

relative band intensity (pull-down compared to input) [1]: 96%
relative band intensity (pull-down compared to input), with eIF4G present [2]: 25%
Kd (eIF4G [3]): 2100 nM
Kd (Ded1p-eIF4G complex [4]): 14 nM
Kd (eIF4G [5]): 49 nM
Kd (eIF4G [6]): 25 nM
Kd (Ded1p-eIF4G complex [7]): 0.003 nM
stoichiometry N [8]: 1
Kd (eIF4G [9]): 500 nM
Kd (Ded1p-eIF4G complex [10]): 0.14 nM
B1: eIF4A (enzyme, S. cerevisiae, UniProt P10081 1-395, looked up)
chain: MSEGITDIEESQIQTNYDKVVYKFDDMELDENLLRGVFGYGFEEPSAIQQRAIMPIIEGHDVLAQAQSGTGKTGTFSIAALQRIDTSVKAPQALMLAPTRELALQIQKVVMALAFHMDIKVHACIGGTSFVEDAEGLRDAQIVVGTPGRVFDNIQRRRFRTDKIKMFILDEADEMLSSGFKEQIYQIFTLLPPTTQVVLLSATMPNDVLEVTTKFMRNPVRILVKKDELTLEGIKQFYVNVEEEEYKYECLTDLYDSISVTQAVIFCNTRRKVEELTTKLRNDKFTVSAIYSDLPQQERDTIMKEFRSGSSRILISTDLLARGIDVQQVSLVINYDLPANKENYIHRIGRGGRFGRKGVAINFVTNEDVGAMRELEKFYSTQIEELPSDIATLLN
notes: eIF4A, DEAD-box RNA helicase, S. cerevisiae, wild type; also called wild-type yeast eIF4A; source: recombinant, purified as described (Hilliker et al., 2011)
